Data as given in patent US8357523B2, “Beta-glucosidase variant enzymes and related polynucleotides” (Codexis, Inc., priority 2009, dated 2013).

B1: 51 (protein)
chain: STAIAQEGAAPAAILHPEKWPRPATQRLIDPAVEKRVDALLKQLSVEEKVGQVIQGDIGTITPEDLRKYPLGSILAGGNSGPNGDDRAPPKEWLDLADAFYRVSLEKRPGHTPIPVLFGIDAVHGHGNIGSATIFPHNIALGATHDPELLRRIGEVTAVEMAATGIDWTFAPALSVVRDDRWGRTYEGFSEDPEIVAAYSAAIVEGVQGKFGSKDFMAPGRIVASAKHFLADGGTDQGRDQGDARISEDELIRIHNAGYPPAIDAGVLTVMASFSSWQGIKHHGHKQLLTDVLKGQMGFNGFIVGDWNAHDQVPGCTKFNCPTSLIAGLDMYMAADSWKQLYENTLAQVKDGTIPMARLDDAVRRILRVKVLAGLFEKPAPKDRPGLPGLETLGSPEHRAVGREAVRKSLVLLKNDKGTLPLSPKARVLVAGDGADNIGKQSGGWTISWQGTGNRNDEFPGATSILGGIRDAVADAGGSVEFDVAGQYKTKPDVAIVVFGEEPYAEFQGDVETLEYQPGQKQDLALLKKLKDQGIPVVAVFLSGRPMWVNPELNASDAFVAAWLPGTEGGGVADVLFTDKAGKVQHDFAGKLSYSWPRTAAQTTVNRGDADYNPLFAYGYGLTYKDKSKVGTLPEESGVPAEARQNAGIYFRAGALRLPGRFL
B2: 52 (protein)
chain: STAIAQEGAAPAAILHPEKWPRPATQRLIDPAVEKRVDALLKQLSVEEKVGQVIQGDIGTITPEDLRKYPLGSILAGGNSGPNGDDRAPPKEWLDLADAFYRVSLEKRPGHTPIPVLFGIDAVHGHGNIGSATIFPHNIAIGATHDPELLRRIGEVTAVEMAATGIDWTFAPALSVVRDDRWGRTYEGFSEDPEIVAAYSAAIVEGVQGKFGSKDFMAPGRIVASAKHFLADGGTDQGRDQGDARISEDELIRIHNAGYPPAIDAGVLTVMASFSSWQGIKHHGHKQLLTDVLKGQMGFNGFIVGDWNAHDQVPGCTKFNCPTSLIAGLDMYMAADSWKQLYENTLAQVKDGTIPMARLDDAVRRILRVKVLAGLFEKPAPKDRPGLPGLETLGSPEHRAVGREAVRKSLVLLKNDKGTLPLSPKARVLVAGDGADNIGKQSGGWTISWQGTGNRNDEFPGATSILGGIRDAVADAGGSVEFDVAGQYKTKPDVAIVVFGEEPYAEFQGDVETLEYQPDQKQDLALLKKLKDQGIPVVAVFLSGRPMWVNPELNASDAFVAAWLPGTEGGGVADVLFTDKAGKVQHDFAGKLSYSWPRTAAQTTVNRGDADYNPLFAYGYGLTYKDKSKVGTLPEESGVPAEARQNAGIYFRAGALRLPGRFL
B3: 53 (protein)
chain: STAIAQEGAAPAAILHPEKWPRPATQRLIDPAVEKRVDALLKQLSVEEKVGQVIQGDIGTITPEDLRKYPLGSILAGGNSGPNGDDRAPPKEWLDLADAFYRVSLEKRPGHTPIPVLFGIDAVHGHGNIGSATIFPHNIALGATHDPELLRRTGEVTAVEMAATGIDWTFAPALSVVRDDRWGRTYEGFSEDPEIVAAYSAAIVEGVQGKFGSKDFMAPGRIVASAKHFLADGGTDQGRDQGDARISEDELIRIHNAGYPPAIDAGVLTVMASFSSWQGIKHHGHKQLLTDVLKGQMGFNGFIVGDWNAHDQVPGCTKFNCPTSLIAGLDMYMAADSWKQLYENTLAQVKDGTIPMARLDDAVRRILRVKVLAGLFEKPAPKDRPGLPGLETLGSPEHRAVGREAVRKSLVLLKNDKGTLPLSPKARVLVAGDGADNIGKQSGGWTISWQGTGNRNDEFPGATSILGGIRDAVADAGGSVEFDVAGQYKTKPDVAIVVFGEEPYAEFQGDVETLEYQPDQKQDLALLKKLKDQGIPVVAVFLSGRPMWVNPELNASDAFVAAWLPGTEGGGVADVLFTDKAGKVQHDFAGKLSYSWPRTAAQTTVNRGDADYNPLFAYGYGLTYKDKSKVGTLPEESGVPAEARQNAGIYFRAGALRLPGRFL
B4: 54 (protein)
chain: STAIAQEGAAPAAILHPEKWPRPATQRLIDPAVEKRVDALLKQLSVEEKVGQVIQGDIGTITPEDLRKYPLGSILAGGNSGPNGDDRAPPKEWLDLADAFYRVSLEKRPGHTPIPVLFGIDAVHGHGNIGSATIFPHNIALGATHDPELLRRIGEVTAVEMAATGIDWTFAPALSVVRDDRWGRTYEGFSEDPEIVAAYSAAIVEGVQGKFGSKDFMAPGRIVASAKHFLADGGTDQGRDQGDARISEDELIRIHNAGYPPAIDAGVLTVMASFSSWQGIKHHGHKQLLTDVLKGQMGFNGFIVGDWNAHDQVPGCTKFNCPTSLIAGLDMYMAADSWKQLYENTLAQVKDGTIPMARLDDAVRRILRVKVLAGLFEKPAPKDRPGLPGLETLGSPEHRAVGREAVRKSLVLLKNDKGTLPLSPKARVLVAGDGADNIGKQSGGWTISWQGTGNRNDEFPGATSILGGIRDAVADAGGSVEFDVAGQYKTKPDVAIVVFGEEPYAEFQGDVETLEYQPDQKQDLALLKKLKDQGIPVVAVFLSGRPMWVNPELNASDAFVAAWLPGTEGGGVADVLFTDKAGKVQHDFAGKLSYSWPRTAAQTTVNRGDADYNPLFAYGYGLTYKDKSKVGTLPEESGVPAEARQNAGIYFRAGALRLPGRFQ
B5: 55 (protein)
chain: STAIAQEGAAPAAILHPEKWPRPATQRLIDPAVEKRVDALLKQLSVEEKVGQVIQGDIGTITPEDLRKYPLGSILAGGNSGPNGDDRAPPKEWLDLADAFYRVSLEKRPGHTPIPVLFGIDAVHGHGNIGSATIFPHNIALGATHDPELLRRIGEVTAVEMAATGIDWTFAPALSVVRDDRWGRTYEGFSEDPEIVAAYSAAIVEGVQGKFGSKDFMAPGRIVATAKHFLADGGTDQGRDQGDARISEDELIRIHNAGYPPAIDAGVLTVMASFSSWQGIKHHGHKQLLTDVLKGQMGFNGFIVGDWNAHDQVPGCTKFNCPTSLIAGLDMYMAADSWKQLYENTLAQVKDGTIPMARLDDAVRRILRVKVLAGLFEKPAPKDRPGLPGLETLGSPEHRAVGREAVRKSLVLLKNDKGTLPLSPKARVLVAGDGADNIGKQSGGWTISWQGTGNRNDEFPGATSILGGIRDAVADAGGSVEFDVAGQYKTKPDVAIVVFGEEPYAEFQGDVETLEYQPDQKQDLALLKKLKDQGIPVVAVFLSGRPMWVNPELNASDAFVAAWLPGTEGGGVADVLFTDKAGKVQHDFAGKLSYSWPRTAAQTTVNRGDADYNPLFAYGYGLTYKDKSKVGTLPEESGVPAEARQNAGIYFRAGALRLPGRFL
B6: 56 (protein)
chain: STAIAQEGAAPAAILHPEKWPRPATQRLIDPAVEKRVDALLKQLSVEEKVGQVIQGDIGTITPEDLRKYPLGSILAGGNSGPNGDDRAPPKEWLDLADAFYRVSLEKRPGHTPIPVLFGIDAVHGHGNIGSATIFPHNIALGATHDPELLRRIGEVTAVEMAATGIDWTFAPALSVVRDDRWGRTYEGFSEDPEIVAAYSAAIVEGVQGKFGSKDFMAPGRIVAFAKHFLADGGTDQGRDQGDARISEDELIRIHNAGYPPAIDAGVLTVMASFSSWQGIKHHGHKQLLTDVLKGQMGFNGFIVGDWNAHDQVPGCTKFNCPTSLIAGLDMYMAADSWKQLYENTLAQVKDGTIPMARLDDAVRRILRVKVLAGLFEKPAPKDRPGLPGLETLGSPEHRAVGREAVRKSLVLLKNDKGTLPLSPKARVLVAGDGADNIGKQSGGWTISWQGTGNRNDEFPGATSILGGIRDAVADAGGSVEFDVAGQYKTKPDVAIVVFGEEPYAEFQGDVETLEYQPDQKQDLALLKKLKDQGIPVVAVFLSGRPMWVNPELNASDAFVAAWLPGTEGGGVADVLFTDKAGKVQHDFAGKLSYSWPRTAAQTTVNRGDADYNPLFAYGYGLTYKDKSKVGTLPEESGVPAEARQNAGIYFRAGALRLPGRFL
B7: 57 (protein)
chain: STAIAQEGAAPAAILHPEKWPRPATQRLIDPAVEKRVDALLKQLSVEEKVGQVIQGDIGTITPEDLRKYPLGSILAGGNSGPNGDDRAPPKEWLDLADAFYRVSLEKRPGHTPIPVLFGIDAVHGHGNIGSATIFPHNIALGATHDPELLRRIGEVTAVEMAATGIDWTFAPALSVVRDDRWGRTYEGFSEDPEIVAAYSAAIVEGVQGKFGSKDFMAPGRCVASAKHFLADGGTDQGRDQGDARISEDELIRIHNAGYPPAIDAGVLTVMASFSSWQGIKHHGHKQLLTDVLKGQMGFNGFIVGDWNAHDQVPGCTKFNCPTSLIAGLDMYMAADSWKQLYENTLAQVKDGTIPMARLDDAVRRILRVKVLAGLFEKPAPKDRPGLPGLETLGSPEHRAVGREAVRKSLVLLKNDKGTLPLSPKARVLVAGDGADNIGKQSGGWTISWQGTGNRNDEFPGATSILGGIRDAVADAGGSVEFDVAGQYKTKPDVAIVVFGEEPYAEFQGDVETLEYQPDQKQDLALLKKLKDQGIPVVAVFLSGRPMWVNPELNASDAFVAAWLPGTEGGGVADVLFTDKAGKVQHDFAGKLSYSWPRTAAQTTVNRGDADYNPLFAYGYGLTYKDKSKVGTLPEESGVPAEARQNAGIYFRAGALRLPGRFL
B8: 58 (protein)
chain: STAIAQEGAAPAAILHPEKWPRPATQRLIDPAVEKRVDALLKQLSVEEKVGQVIQGDIGTITPEDLRKYPLGSILAGGNSGPNGDDRAPPKEWLDLADAFYRVSLEKRPGHTPIPVLFGIDAVHGHGNIGSATIFPHNIALGATHDPELLRRIGMVTAVEMAATGIDWTFAPALSVVRDDRWGRTYEGFSEDPEIVAAYSAAIVEGVQGKFGSKDFMAPGRIVASAKHFLADGGTDQGRDQGDARISEDELIRIHNAGYPPAIDAGVLTVMASFSSWQGIKHHGHKQLLTDVLKGQMGFNGFIVGDWNAHDQVPGCTKFNCPTSLIAGLDMYMAADSWKQLYENTLAQVKDGTIPMARLDDAVRRILRVKVLAGLFEKPAPKDRPGLPGLETLGSPEHRAVGREAVRKSLVLLKNDKGTLPLSPKARVLVAGDGADNIGKQSGGWTISWQGTGNRNDEFPGATSILGGIRDAVADAGGSVEFDVAGQYKTKPDVAIVVFGEEPYAEFQGDVETLEYQPDQKQDLALLKKLKDQGIPVVAVFLSGRPMWVNPELNASDAFVAAWLPGTEGGGVADVLFTDKAGKVQHDFAGKLSYSWPRTAAQTTVNRGDADYNPLFAYGYGLTYKDKSKVGTLPEESGVPAEARQNAGIYFRAGALRLPGRFL

Test: High throughput cellobiose assay: fold improvement in cellobiase activity of CelA variants over a control enzyme (Tables 2A-2D, 3, 5, 6, 7)
Format: biochemical
Settings: 3.3 g/l cellobiose, 50° C. and pH 6.5; compared to native CelA (SEQ ID NO: 4)

Molecule | Fold improvement over wildtype CelA
B1 | + (+ = 1.1 to 2.0 fold improvement over native CelA (SEQ ID NO: 4))
B2 | + (+ = 1.1 to 2.0 fold improvement over native CelA (SEQ ID NO: 4))
B3 | + (+ = 1.1 to 2.0 fold improvement over native CelA (SEQ ID NO: 4))
B4 | + (+ = 1.1 to 2.0 fold improvement over native CelA (SEQ ID NO: 4))
B5 | + (+ = 1.1 to 2.0 fold improvement over native CelA (SEQ ID NO: 4))
B6 | + (+ = 1.1 to 2.0 fold improvement over native CelA (SEQ ID NO: 4))
B7 | + (+ = 1.1 to 2.0 fold improvement over native CelA (SEQ ID NO: 4))
B8 | + (+ = 1.1 to 2.0 fold improvement over native CelA (SEQ ID NO: 4))
